Assay: yeast display, Sf9 membrane polyspecificity reagent, FACS + sequencing; frameworks hold sequencing errors
Procedure, shortened: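 Galactose-induced (36–48 hours) yeast carrying a synthetic nanobody display library were exposed to 10% biotinylated, detergent-solubilized Sf9 membrane reagent at 4 °C for 1 hour. FACS followed streptavidin microbead enrichment, using low and high (top ~1%) gates for expression (anti-HA) and reagent binding (streptavidin). Colony PCR, MiSeq 2 × 250 sequencing and CDR-length filtering followed. Labels for polyreactivity reflect the gate of origin.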

QVQLVESGGGLVQAGGSLRLSCAASGRIFGVNAMGWYRQAPGKERELVAVISSGGSTYYADSVKGRFTISRDNAKKTVYLQMNSLKPEDTEVYYCDRKSYNFIPGNREYDYWGQGTQVTVSS
polyreactivity (PSR sort gate): low polyreactivity

QVQLVESGGGLVQAGGSLRLSCAASGRIFGVNAMGWYRQAPGKVRELVAAIRYSGGSTYYADSVKGRFTISRDYAKNTVYLQMNSLKPEDTAVYYCAKARYTYSWSFGYWGQGTQVTVSS
polyreactivity (PSR sort gate): low polyreactivity

QVQLVESGGGLVQAGGSLRLSCAASGRIFGVYALGWYRQAPGKARELVAVINGRGSRTYYADSVKGRFRISRDNAKNTVYLQMNSLKPEDTAVYYCAAGYPASEYDYWGQGTQVTVSS
polyreactivity (PSR sort gate): high polyreactivity

QVQLVESGGGLVQAGGSLRLSCAASGRIFGVYAMGWYREAPGKEREVVAAITYRGASTYADSVKGRFTISRVNAKKTVYLQMNSLKPEDTAVYYCATYPQYYFRYDYWGQGTQVTVSS
polyreactivity (PSR sort gate): high polyreactivity

QVQLVESGGGLVQAGGSLRLSCAASGRIFGVYAMGWYRQAPGKERELFADISWSGSGTYADSVKGRFTISRDNAKNTVYLQMNSLKPEDTAVYYCNVDPAQIHAGYVGYDYWGQGTQVTVSS
polyreactivity (PSR sort gate): low polyreactivity

QVQLVESGGGLVQAGGSLRLSCAASGRIFGVYAMGWYRQAPGKERELVAAISFSGGRTYYADSVKGRFTISRDNAKNTVYLQMNSLKAEDTAVYDCAALGPYDWLWAGDYWGQGTQVTVSS
polyreactivity (PSR sort gate): low polyreactivity

QVQLVESGGGLVQAGGSLRLSCAASGRIFGVYAMGWYRQAPGKERELVAAISSTGDRTYYADSVKGRFTISRDNAKNTVYLQMNSLKPEDTAVYYCAARPAYRSSYYWGQGTQVTVSS
polyreactivity (PSR sort gate): high polyreactivity

QVQLVESGGGLVQAGGSLRLSCAASGRIFGVYAMGWYRQAPGKERQLVAAITARGGSTYYADSVKGRFTISRDNAKNTVYLQMNSLKPEDTAVYYCATRLYKRTRTITYGYWGQGTQVTVSS
polyreactivity (PSR sort gate): high polyreactivity

QVQLVESGGGLVQAGGSLRLSCAASGRIFGVYGMGWYRQAPGKERELVAAITISGRTNYADSVKGRFTISRDNAKNTVYLQMNSLKPEDTAVYYCAAEKRKLFQGVARYRYEYWGQGTQVTVSS
polyreactivity (PSR sort gate): low polyreactivity

QVQLVESGGGLVQAGGSLRLSCAASGRIFGVYGMGWYRQAPGKERELVAAITISGRTNYADSVKGRFTISRDNAKNTVYLQMNSLKREDTAVYYCAAGGQARHDYWGQGTQVTVSS
polyreactivity (PSR sort gate): low polyreactivity

QVQLVESGGGLVQAGGSLRLSCAASGRIFGYNAMGWYRQAPGKEREFVAAITYRGGSTYYADSVKGRFTISRDNAKTTVYLEMNSLKPEDTAVYYCASRVTQYPKYWGDYWGQGTQVTVSS
polyreactivity (PSR sort gate): high polyreactivity

QVQLVESGGGLVQAGGSLRLSCAASGRIFGYNAMGWYRQAPGKERELVAAIRYSGGRTYYADSVKGRFTISRDNAKNTVYLQMNSLKREDTAVYYCAATAFDKLKVWYYYWGQGTQVTVSS
polyreactivity (PSR sort gate): high polyreactivity

QVQLVESGGGLVQAGGSLRLSCAASGRIFGYNAMGWYRQAPGKERELVATISGRGGSTYYADSVKGRFTISRDNAKNTVYLQMNSLKPEDTAVYYCNAKRKYGRFPKKYYYWGQGTQVTVSS
polyreactivity (PSR sort gate): high polyreactivity

QVQLVESGGGLVQAGGSLRLSCAASGRIFGYNAMGWYRQAPGNERELVAAITNGGSTNYADSVKGRFTISRDNAKNTVYLQINSLKPEDTAVYYCAVKWYPPGHDYWGQGTQVTVSS
polyreactivity (PSR sort gate): low polyreactivity

QVQLVESGGGLVQAGGSLRLSCAASGRIFGYNDMGWYRQAPGKERELVAAINRTGGSTYYADSVKGRFTISRDNGKNTVYLQMNSLKPEDTAVYYCNAVARTKWVQTHTDFITDYDYWGQGTQVTVSS
polyreactivity (PSR sort gate): low polyreactivity

QVQLVESGGGLVQAGGSLRLSCAASGRIFGYNSMGWYRQAPGKERELVAAIRRSGGRTFYADSVKGRFTLSRDNAKNTVYLQMNRLKPEDTAVYYCAVRGPGTSTYWYHEYEYWGQGTQVTVSS
polyreactivity (PSR sort gate): high polyreactivity

QVQLVESGGGLVQAGGSLRLSCAASGRIFGYTMGWYRPAPGKERELVAAISRSAGSTYYADSVKGRFTISRDNAKNTVYLQMNSLKPEDTAVYYCAATGRYYREYDYWGQGTQVTVSS
polyreactivity (PSR sort gate): high polyreactivity

QVQLVESGGGLVQAGGSLRLSCAASGRIFGYYAMGWSRQAPGKERELVASIRRGTRTNYADSVKGRFTISRDNAKNTVYLQMNSLKPEDTAVYYCAATRFQFTTTPWYDYWGQGTHVTVSS
polyreactivity (PSR sort gate): high polyreactivity

QVQLVESGGGLVQAGGSLRLSCAASGRIFGYYAMGWYRPAPGKEMELVAAIRYSSGRTYYADSVKGRFTISRDNAKNTVYLQMNSLKPEDTAVYYCAAKDQATYQLNYWGQGTQVTVSS
polyreactivity (PSR sort gate): high polyreactivity

QVQLVESGGGLVQAGGSLRLSCAASGRIFGYYAMGWYRQAPGKERELVAAIDGSGGTTYYADSVKGRITISRDNAKNSVYLQMNSLKPEATAVYYCAARGYNSKYGYWGQGTQVTVSS
polyreactivity (PSR sort gate): high polyreactivity

QVQLVESGGGLVQAGGSLRLSCAASGRIFGYYAMGWYRQAPGKERELVAAISNGGSTHYADSVKGRFTISRDNANNTVYLQMTSLKPEDTAVYYCAAKASRVDWGYGYWGQGTQVTVSS
polyreactivity (PSR sort gate): high polyreactivity

QVQLVESGGGLVQAGGSLRLSCAASGRIFGYYAMGWYRQAPGKERELVAAISYIGGRTYYADSVKGRFTISRDNAKNTGYLQMNSLKPEDTAVYYCDADRDGADVDYWGQGTQVTVSS
polyreactivity (PSR sort gate): high polyreactivity

QVQLVESGGGLVQAGGSLRLSCAASGRIFGYYAMGWYRQAPGKERELVAAITWSGGSTYYADSVKGRFTISRDNAKNTVYLQMNSLKPEDNAVYYCAAEKRYRKAFDYWGQGTQVTVSS
polyreactivity (PSR sort gate): high polyreactivity

QVQLVESGGGLVQAGGSLRLSCAASGRIFGYYAMGWYRQAPGKERELVAGIDWSGGNTYYADSVKGRFTISRDNAKNTVYLQMNSLKPEDTAVYYCNTVGGRDTAWYDYWGQGTQVTVSS
polyreactivity (PSR sort gate): low polyreactivity

QVQLVESGGGLVQAGGSLRLSCAASGRIFGYYAMGWYRQAPGKERELVARIRRRGGSTYYADSVKGRFTISRDNAKNTVYLQMNSLKPEDTAVYYCAAVYYPLVGKRYYYWGQGTQVTVSS
polyreactivity (PSR sort gate): high polyreactivity

QVQLVESGGGLVQAGGSLRLSCAASGRIFGYYAMGWYRQAPGKERELVASITNGASTNYADSVKGRFTISRDNAKNTVYLQMNSLKPEDTAVYYWNARRGSRRFGYWGQGTQVTVSS
polyreactivity (PSR sort gate): high polyreactivity

QVQLVESGGGLVQAGGSLRLSCAASGRIFGYYAMGWYRQAPGKQRELVAAISWSGGRTYYADSVKGRFTISRDNAKNTVYLQMNSLKPEDTAVYYCNKVYRVPITEEYDYWGQGTQVTVSS
polyreactivity (PSR sort gate): high polyreactivity

QVQLVESGGGLVQAGGSLRLSCAASGRIFGYYAMGWYRQAPGTERELVAAITYNGASTYYADSVKGRFTISRDNAKNTVYLQMNSLKPEDTAVYYCAVLTRYGGYGYWGQGTQVTVSS
polyreactivity (PSR sort gate): high polyreactivity

QVQLVESGGGLVQAGGSLRLSCAASGRIFGYYGMGWYRPAPGKERELVAAITYRGGSTYYADSVKGRFTISRDNAKNTVYLQMNSLKPEDTAVYYCAADGYSHYPYLYDYWGQGTQVTVSS
polyreactivity (PSR sort gate): low polyreactivity

QVQLVESGGGLVQAGGSLRLSCAASGRIFGYYPKGCYRPAPGKERELVAAISSGGNTNYADSVKGRFTISRDNAKKTVYLQMNSLKPEDTAVYYCSAYHFSFGWIRVDYWGQGTQVTVSS
polyreactivity (PSR sort gate): high polyreactivity

QVQLVESGGGLVQAGGSLRLSCAASGRIFGYYTMGWYRQAPGKERELVATIDWSGDSTYYADSVKARFTISRDNAKNTVYLQMNSLKPEDTAVYYCAARDHAFRYYRNPYKGKYDYWGQGTQVPVSS
polyreactivity (PSR sort gate): low polyreactivity

QVQLVESGGGLVQAGGSLRLSCAASGRIFHFNAIGWYRQAPGKERELFARIDTRGDSTYYADSVKGRFTISRDNAKNTVYLQMNSLKPEDTAVYYCAARGSRDGPYSGYGYWGQGTQVTVSS
polyreactivity (PSR sort gate): low polyreactivity

From the nanobody polyreactivity screen of Harvey et al. (2022)
